In publication PMC7483680 (Experimental parasitology, 2020):

Target: T1, recombinant GST-tagged wild-type Toxoplasma gondii GCN5b bromodomain (BRD) (Toxoplasma gondii, UniProt S8F3V2 877-986)
T1 sequence (looked up): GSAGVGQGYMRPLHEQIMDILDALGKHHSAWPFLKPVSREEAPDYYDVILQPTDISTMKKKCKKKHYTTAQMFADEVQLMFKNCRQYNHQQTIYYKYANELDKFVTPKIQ
Test: pull-down

B1: biotinylated tetra-acetylated histone H4 peptide (K5/8/12/16), residues 1-18 of human histone H4 (peptide, UniProt P62805 2-19, looked up)
peptide: SGRGKGGKGLGKGGAKRH
modifications: acetyl-lysine at K5, K8, K12 and K16; biotin (position not given)
B1: binds.
